This passage reports Kd results from patent US20210388110A1 (published 2021).

This assay addresses T1, soluble human GPC3 (human, UniProt P51654 25-563, limits assumed).
T1 construct: also called glypican 3
The assay can be described thus: SPR (Biacore), single-arm antibody, soluble human GPC3. Background: SPR reads the build-up and loss of mass on a sensor chip optically.

T1 sequence (P51654 other isoform, or with tags, fused parts or gaps limits assumed, form in doubt): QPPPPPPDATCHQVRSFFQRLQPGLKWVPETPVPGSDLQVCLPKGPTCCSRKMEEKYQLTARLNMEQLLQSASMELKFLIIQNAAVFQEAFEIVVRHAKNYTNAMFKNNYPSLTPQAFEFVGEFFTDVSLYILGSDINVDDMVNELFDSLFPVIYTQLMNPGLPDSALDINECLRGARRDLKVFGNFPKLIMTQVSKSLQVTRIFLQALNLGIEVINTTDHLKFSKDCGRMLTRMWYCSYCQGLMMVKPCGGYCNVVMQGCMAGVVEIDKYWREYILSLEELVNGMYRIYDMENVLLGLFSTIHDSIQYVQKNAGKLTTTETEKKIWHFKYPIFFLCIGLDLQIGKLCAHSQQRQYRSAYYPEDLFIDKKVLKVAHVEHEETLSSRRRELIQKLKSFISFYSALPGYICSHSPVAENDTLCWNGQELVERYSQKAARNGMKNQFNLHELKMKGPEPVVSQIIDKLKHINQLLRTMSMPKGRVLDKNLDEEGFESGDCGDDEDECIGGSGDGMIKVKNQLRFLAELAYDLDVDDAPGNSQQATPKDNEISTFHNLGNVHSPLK

B1: GCH008-G1dh/none-Hi-Kn010G3/L0000-k0 (antibody, human IgG1, kappa)
heavy: not shown
chain: EPKSSDKTHTCPPCPAPELLGGPSVFLFPPKPKDTLMISRTPEVTCVVVDVSHEDPEVKFNWYVDGVEVHNAKTKPREEQYNSTYRVVSVLTVLHQDWLNGKEYKCKVSNKALPAPIEKTISKAKGQPREPQVCTLPPSRDELTKNQVSLWCLVKGFYPSDIAVEWESNGQPENNYKTTPPVLDSDGSFFLYSKLTVDKSRWQQGNVFSCSVMHEALHNRYTQKSLSLSP
light: DIVMTQSPLSLPVTPGEPASISCRSSQSLVHSNRNTYLHWYQQKPGQAPRLLIYKVSNRFSGVPDRFSGSGSGTDFTLKISRVEAEDVGVYYCGQGTQVPYTFGQGTKLEIKRTVAAPSVFIFPPSDEQLKSGTASVVCLLNNFYPREAKVQWKVDNALQSGNSQESVTEQDSKDSTYSLSSTLTLSKADYEKHKVYACEVTHQGLSSPVTKSFNRGEC
notes: single-arm antibody
For B1, the affinity, expressed as Kd, was 5.55 nM.

B2: GCH025-G1dh/none-Hi-Kn010G3/L0000-k0 (antibody, human IgG1, kappa)
heavy: not shown
chain: EPKSSDKTHTCPPCPAPELLGGPSVFLFPPKPKDTLMISRTPEVTCVVVDVSHEDPEVKFNWYVDGVEVHNAKTKPREEQYNSTYRVVSVLTVLHQDWLNGKEYKCKVSNKALPAPIEKTISKAKGQPREPQVCTLPPSRDELTKNQVSLWCLVKGFYPSDIAVEWESNGQPENNYKTTPPVLDSDGSFFLYSKLTVDKSRWQQGNVFSCSVMHEALHNRYTQKSLSLSP
light: DIVMTQSPLSLPVTPGEPASISCRSSQSLVHSNRNTYLHWYQQKPGQAPRLLIYKVSNRFSGVPDRFSGSGSGTDFTLKISRVEAEDVGVYYCGQGTQVPYTFGQGTKLEIKRTVAAPSVFIFPPSDEQLKSGTASVVCLLNNFYPREAKVQWKVDNALQSGNSQESVTEQDSKDSTYSLSSTLTLSKADYEKHKVYACEVTHQGLSSPVTKSFNRGEC
notes: single-arm antibody
On to B2, for which the Kd (usually a measure of binding affinity in units of concentration) stood at 5.05 nM.

B3: GCH023-G1dh/none-Hi-Kn010G3/L0000-k0 (antibody, human IgG1, kappa)
heavy: not shown
chain: EPKSSDKTHTCPPCPAPELLGGPSVFLFPPKPKDTLMISRTPEVTCVVVDVSHEDPEVKFNWYVDGVEVHNAKTKPREEQYNSTYRVVSVLTVLHQDWLNGKEYKCKVSNKALPAPIEKTISKAKGQPREPQVCTLPPSRDELTKNQVSLWCLVKGFYPSDIAVEWESNGQPENNYKTTPPVLDSDGSFFLYSKLTVDKSRWQQGNVFSCSVMHEALHNRYTQKSLSLSP
light: DIVMTQSPLSLPVTPGEPASISCRSSQSLVHSNRNTYLHWYQQKPGQAPRLLIYKVSNRFSGVPDRFSGSGSGTDFTLKISRVEAEDVGVYYCGQGTQVPYTFGQGTKLEIKRTVAAPSVFIFPPSDEQLKSGTASVVCLLNNFYPREAKVQWKVDNALQSGNSQESVTEQDSKDSTYSLSSTLTLSKADYEKHKVYACEVTHQGLSSPVTKSFNRGEC
notes: single-arm antibody
B3 showed a Kd of 4.94 nM.

B4: GCH012-G1dh/none-Hi-Kn010G3/L0000-k0 (antibody, human IgG1, kappa)
heavy: not shown
chain: EPKSSDKTHTCPPCPAPELLGGPSVFLFPPKPKDTLMISRTPEVTCVVVDVSHEDPEVKFNWYVDGVEVHNAKTKPREEQYNSTYRVVSVLTVLHQDWLNGKEYKCKVSNKALPAPIEKTISKAKGQPREPQVCTLPPSRDELTKNQVSLWCLVKGFYPSDIAVEWESNGQPENNYKTTPPVLDSDGSFFLYSKLTVDKSRWQQGNVFSCSVMHEALHNRYTQKSLSLSP
light: DIVMTQSPLSLPVTPGEPASISCRSSQSLVHSNRNTYLHWYQQKPGQAPRLLIYKVSNRFSGVPDRFSGSGSGTDFTLKISRVEAEDVGVYYCGQGTQVPYTFGQGTKLEIKRTVAAPSVFIFPPSDEQLKSGTASVVCLLNNFYPREAKVQWKVDNALQSGNSQESVTEQDSKDSTYSLSSTLTLSKADYEKHKVYACEVTHQGLSSPVTKSFNRGEC
notes: single-arm antibody
The molecule B4 yielded a Kd of 5.4 nM.

B5: GCH022-G1dh/none-Hi-Kn010G3/L0000-k0 (antibody, human IgG1, kappa)
heavy: not shown
chain: EPKSSDKTHTCPPCPAPELLGGPSVFLFPPKPKDTLMISRTPEVTCVVVDVSHEDPEVKFNWYVDGVEVHNAKTKPREEQYNSTYRVVSVLTVLHQDWLNGKEYKCKVSNKALPAPIEKTISKAKGQPREPQVCTLPPSRDELTKNQVSLWCLVKGFYPSDIAVEWESNGQPENNYKTTPPVLDSDGSFFLYSKLTVDKSRWQQGNVFSCSVMHEALHNRYTQKSLSLSP
light: DIVMTQSPLSLPVTPGEPASISCRSSQSLVHSNRNTYLHWYQQKPGQAPRLLIYKVSNRFSGVPDRFSGSGSGTDFTLKISRVEAEDVGVYYCGQGTQVPYTFGQGTKLEIKRTVAAPSVFIFPPSDEQLKSGTASVVCLLNNFYPREAKVQWKVDNALQSGNSQESVTEQDSKDSTYSLSSTLTLSKADYEKHKVYACEVTHQGLSSPVTKSFNRGEC
notes: single-arm antibody
Take B5: the Kd was found to be 4.92 nM.
